In this assay the target is PD-L1 on CHO cells expressing human PD-L1 (CHO-PDL1) (human, UniProt Q9NZQ7 19-290). In words: flow cytometry cell binding; CHO-PD-L1 cells. (Flow cytometry measures light scatter and fluorescence of single cells or particles in a stream.)
Chain of PD-L1 on CHO cells expressing human PD-L1 (CHO-PDL1) (Q9NZQ7 19-290): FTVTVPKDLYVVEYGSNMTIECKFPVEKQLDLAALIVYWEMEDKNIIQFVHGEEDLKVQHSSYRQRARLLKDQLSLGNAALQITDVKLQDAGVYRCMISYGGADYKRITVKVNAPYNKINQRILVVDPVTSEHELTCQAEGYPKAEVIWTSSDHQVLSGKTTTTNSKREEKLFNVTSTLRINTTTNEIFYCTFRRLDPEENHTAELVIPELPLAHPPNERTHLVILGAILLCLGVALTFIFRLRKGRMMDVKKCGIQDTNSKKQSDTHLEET

B1: IMM2515 (antibody, V domains shown)
VH: QVQLVQSGAEVKKPGASVKVSCKASGYTFTSNWMHWVRQAPGQGLEWMGMIHPNSGSSNYNEKFKSRVTMTRDTSTSTVYMELSSLRSEDTAVYYCARSYYGSSPYYFDYWGQGTLVTVSS
VL: DIQMTQSPSSLSASVGDRVTITCRASQDIINYLNWYQQKPGKAPKLLIYYTSRLHSGVPSRFSGSGSGTDFTFTISSLQPEDIATYYCQQGDTLPWTFGQGTKVEIKR
Consider B1, for which the EC50 amounted to 0.0511 nM.

For orientation: EC50 means the concentration that produces a half-maximal response. Low readings indicate a more potent agent, high ones a less potent agent.

The values are drawn from US20230083670A1 (published 2023).
